Data: US5650488A, “Polypeptide inhibitor of the replication of HSV” (British Technology Group Limited, priority 1991, dated 1997)

Molecular target: T1, TRF/Vmw 65/CFF complex (Homo sapiens, UniProt P51610)
T1 construct: A nuclear extract of HeLa cells was prepared; from tissue; host or cells: HeLa cell nuclear extract (TRF, CFF)
Test: Peptide inhibition of quaternary complex assembly (gel retardation with HeLa nuclear extract, purified Vmw 65 and 32P-labelled TAATGARAT probe)
Assay type: biochemical, HSV-1
Design: key to Level of Inhibition: "+++" indicates a high level inhibition of complex formation; "++" indicates a lower level and so on; "-" indicates no inhibition of complex formation
Protocol: A nuclear extract of HeLa cells was prepared exactly as described by Dignam et al., Nucl. Acids. Res. 11 1475-1489, (1983) (This is a standard protocol for the preparation of extracts containing cellular DNA binding proteins). Polypeptides from Vmw 65 amino acids were synthesised by Cambridge Research Biochemicals Ltd., Cambridge, UK, under contract, in accordance with the sequence set forth above. 1 μl volumes of phosphate buffered saline containing increasing amounts (100 ng, 500 ng, 1 μg, 2.5 μg, 5μg) of the polypeptide (amino acids 360-367) was added to a standard amount of HeLa cell nuclear extract (1 μl extract per 2 μg polypeptide). After incubation at 20° C. for 30 minutes a 1 μl sample of Vmw 65 protein, purified as described by P. O'Hare et al., EMBO J. 7: 4231-4238 (1988) was added to the extract polypeptide mixtures and incubation continued for a further 5 minutes in a buffer containing 25 mM HEPES pH 7.9, 1 mM EDTA, 5 mM DTT, 100 mM KCl, 0.05% NP40 10% glycerol, and 2 μg of salmon sperm DNA. A ^32 P radioactively labelled probe present in excess and encompassing nucleotides -171 to -149 (numbered starting upstream of the site of mRNA transcription: the TAATGARAT sequence is at -162 to -154) of the immediate-early IE110K gene of HSV-1 was then added and incubation continued for a further 25 minutes. […]

T1 sequence (P51610 whole entry, one chain of several): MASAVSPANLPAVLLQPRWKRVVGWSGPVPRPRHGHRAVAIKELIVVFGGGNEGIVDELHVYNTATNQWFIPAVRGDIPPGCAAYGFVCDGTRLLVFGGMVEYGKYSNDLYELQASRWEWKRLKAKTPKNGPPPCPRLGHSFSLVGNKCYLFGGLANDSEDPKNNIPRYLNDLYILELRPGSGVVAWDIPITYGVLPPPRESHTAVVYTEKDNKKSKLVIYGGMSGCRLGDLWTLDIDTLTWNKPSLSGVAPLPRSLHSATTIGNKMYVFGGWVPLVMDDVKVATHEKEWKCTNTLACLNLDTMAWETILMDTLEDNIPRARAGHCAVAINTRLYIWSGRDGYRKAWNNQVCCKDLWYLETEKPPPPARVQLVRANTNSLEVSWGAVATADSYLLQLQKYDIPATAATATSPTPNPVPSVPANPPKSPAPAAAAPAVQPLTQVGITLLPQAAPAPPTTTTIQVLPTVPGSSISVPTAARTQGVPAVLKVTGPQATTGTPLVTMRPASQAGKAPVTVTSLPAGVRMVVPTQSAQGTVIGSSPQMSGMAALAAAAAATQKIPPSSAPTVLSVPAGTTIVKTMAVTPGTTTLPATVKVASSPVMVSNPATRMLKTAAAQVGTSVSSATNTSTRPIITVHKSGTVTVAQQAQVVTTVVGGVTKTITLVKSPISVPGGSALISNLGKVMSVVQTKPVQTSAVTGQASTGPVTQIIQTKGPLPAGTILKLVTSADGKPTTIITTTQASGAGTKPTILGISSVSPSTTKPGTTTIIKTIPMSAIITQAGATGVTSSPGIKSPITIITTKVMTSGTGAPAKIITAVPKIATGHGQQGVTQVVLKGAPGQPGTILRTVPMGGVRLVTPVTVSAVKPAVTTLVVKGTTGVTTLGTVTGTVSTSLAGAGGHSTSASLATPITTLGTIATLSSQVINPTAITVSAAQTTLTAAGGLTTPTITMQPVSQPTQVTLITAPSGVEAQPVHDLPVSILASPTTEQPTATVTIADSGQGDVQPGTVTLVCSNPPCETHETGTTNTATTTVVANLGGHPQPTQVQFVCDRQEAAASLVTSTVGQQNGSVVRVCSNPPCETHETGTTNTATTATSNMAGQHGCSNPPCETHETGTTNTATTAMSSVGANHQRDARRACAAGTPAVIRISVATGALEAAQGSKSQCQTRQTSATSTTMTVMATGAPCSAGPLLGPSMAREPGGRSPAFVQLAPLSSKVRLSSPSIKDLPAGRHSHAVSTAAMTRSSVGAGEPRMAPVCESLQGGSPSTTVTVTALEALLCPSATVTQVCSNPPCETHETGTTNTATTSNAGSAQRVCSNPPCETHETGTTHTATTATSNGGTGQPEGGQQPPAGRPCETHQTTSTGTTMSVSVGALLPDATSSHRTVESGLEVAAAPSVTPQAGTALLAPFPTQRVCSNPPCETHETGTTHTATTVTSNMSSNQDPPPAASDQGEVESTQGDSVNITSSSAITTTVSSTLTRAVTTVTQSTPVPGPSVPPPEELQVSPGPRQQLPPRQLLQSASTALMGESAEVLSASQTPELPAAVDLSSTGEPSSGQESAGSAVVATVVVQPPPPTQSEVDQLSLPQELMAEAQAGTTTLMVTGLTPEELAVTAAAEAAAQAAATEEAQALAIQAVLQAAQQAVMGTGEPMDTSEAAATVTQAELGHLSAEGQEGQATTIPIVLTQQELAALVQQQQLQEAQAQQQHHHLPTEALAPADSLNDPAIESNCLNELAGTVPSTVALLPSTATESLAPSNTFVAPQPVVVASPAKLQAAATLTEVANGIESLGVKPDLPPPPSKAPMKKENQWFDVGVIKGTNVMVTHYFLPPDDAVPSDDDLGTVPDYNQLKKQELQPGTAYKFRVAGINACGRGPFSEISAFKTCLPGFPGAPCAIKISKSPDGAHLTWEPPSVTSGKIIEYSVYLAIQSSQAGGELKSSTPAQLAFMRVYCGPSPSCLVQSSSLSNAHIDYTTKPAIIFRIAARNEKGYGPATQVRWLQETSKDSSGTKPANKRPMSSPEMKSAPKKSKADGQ

For “355-367: polypeptide of region 355-367 of Vmw 65; 360-367 inhibitory region with 355-359 flanking stabilizing region”, the “Level of Inhibition” value (inhibition of complex formation, experiment of Example 1 repeated with various Vmw-65 polypeptides) was “+++” and the “inhibiting complex formation (result in words)” value (summary of the Table) was “effective”.
